# T1: human carcinoembryonic antigen-related cell adhesion molecule 5 (human, UniProt P06731 35-702)
# T1 sequence (looked up): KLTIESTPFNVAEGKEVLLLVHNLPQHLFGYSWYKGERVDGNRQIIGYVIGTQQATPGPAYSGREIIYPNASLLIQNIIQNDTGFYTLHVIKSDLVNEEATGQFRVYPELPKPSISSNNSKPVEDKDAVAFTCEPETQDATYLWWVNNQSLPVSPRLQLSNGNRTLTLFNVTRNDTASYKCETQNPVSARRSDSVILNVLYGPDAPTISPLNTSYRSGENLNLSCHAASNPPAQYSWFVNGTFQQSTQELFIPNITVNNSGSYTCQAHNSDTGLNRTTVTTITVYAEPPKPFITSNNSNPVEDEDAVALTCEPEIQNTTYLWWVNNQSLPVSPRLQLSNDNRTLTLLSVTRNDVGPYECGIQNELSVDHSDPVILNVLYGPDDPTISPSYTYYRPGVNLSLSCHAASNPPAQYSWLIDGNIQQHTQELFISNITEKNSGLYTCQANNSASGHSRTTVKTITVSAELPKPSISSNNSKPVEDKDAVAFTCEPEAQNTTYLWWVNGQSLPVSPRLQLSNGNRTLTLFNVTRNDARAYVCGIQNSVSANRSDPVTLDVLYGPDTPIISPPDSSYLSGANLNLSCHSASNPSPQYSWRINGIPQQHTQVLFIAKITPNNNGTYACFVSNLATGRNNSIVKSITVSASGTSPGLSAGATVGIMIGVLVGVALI
# Molecular target: T1, human carcinoembryonic antigen-related …
# Assay: cell-based or functional assay
row,Binder,EC50 (pM) of TCB-mediated killing of LS-174T target cells co-cultured with human PBMCs (viability read-out)
1,"CEA-4N1-TA1+4O1 (bispecific antibody, human IgG4 S228P, F234A L235A) chain 1: EVQLVESGGGFVQAGESLTLSCTSSTLTFTPYRMAWYRQAPGKQRDLVADISSGDGRTTNYADFAKGRFTISRDNIKNTVFLRMTNLKPEDTAVYYCNTFVSFVGIARSWGQGTQVTVSSESKYGPPCPPCPAPEAAGGPSVFLFPPKPKDTLMISRTPEVTCVVVDVSQEDPEVQFNWYVDGVEVHNAKTKPREEQFNSTYRVVSVLTVLHQDWLNGKEYKCKVSNKGLPSSIEKTISKAKGQPREPQVYTLPPCQEEMTKNQVSLWCLVKGFYPSDIAVEWESNGQPENNYKTTPPVLDSDGSFFLYSRLTVDKSRWQEGNVFSCSVMHEALHNHYTQKSLSLSLGGGGSGGGGSEVKLLESGGGLVQPKGSLKLSCAASGFTFNTYAMNWVRQAPGKGLEWVARIRSKYNNYATYYADSVKDRFTISRDDSQSILYLQMNNLKTEDTAMYYCVRHGNFGNSYVSWFAYWGQGTLVTVSSGGGGSGGGGSGGGGSQAVVTQESALTTSPGETVTLTCRSSTGAVTTSNYANWVQEKPDHLFTGLIGGTNKRAPGVPARFSGSLIGDKAALTITGAQTEDEAIYFCALWYSNLWVFGGGTKVEIKRT chain 2: ESKYGPPCPPCPAPEAAGGPSVFLFPPKPKDTLMISRTPEVTCVVVDVSQEDPEVQFNWYVDGVEVHNAKTKPREEQFNSTYRVVSVLTVLHQDWLNGKEYKCKVSNKGLPSSIEKTISKAKGQPREPQVCTLPPSQEEMTKNQVSLSCAVKGFYPSDIAVEWESNGQPENNYKTTPPVLDSDGSFFLVSRLTVDKSRWQEGNVFSCSVMHEALHNRFTQKSLSLSL",0.4 pM
2,"TA1-4N1+CEA-4O1 (bispecific antibody, human IgG4 S228P, F234A L235A) chain 1: EVKLLESGGGLVQPKGSLKLSCAASGFTFNTYAMNWVRQAPGKGLEWVARIRSKYNNYATYYADSVKDRFTISRDDSQSILYLQMNNLKTEDTAMYYCVRHGNFGNSYVSWFAYWGQGTLVTVSSGGGGSGGGGSGGGGSQAVVTQESALTTSPGETVTLTCRSSTGAVTTSNYANWVQEKPDHLFTGLIGGTNKRAPGVPARFSGSLIGDKAALTITGAQTEDEAIYFCALWYSNLWVFGGGTKVEIKRTESKYGPPCPPCPAPEAAGGPSVFLFPPKPKDTLMISRTPEVTCVVVDVSQEDPEVQFNWYVDGVEVHNAKTKPREEQFNSTYRVVSVLTVLHQDWLNGKEYKCKVSNKGLPSSIEKTISKAKGQPREPQVYTLPPCQEEMTKNQVSLWCLVKGFYPSDIAVEWESNGQPENNYKTTPPVLDSDGSFFLYSRLTVDKSRWQEGNVFSCSVMHEALHNHYTQKSLSLSL chain 2: EVQLVESGGGFVQAGESLTLSCTSSTLTFTPYRMAWYRQAPGKQRDLVADISSGDGRTTNYADFAKGRFTISRDNIKNTVFLRMTNLKPEDTAVYYCNTFVSFVGIARSWGQGTQVTVSSESKYGPPCPPCPAPEAAGGPSVFLFPPKPKDTLMISRTPEVTCVVVDVSQEDPEVQFNWYVDGVEVHNAKTKPREEQFNSTYRVVSVLTVLHQDWLNGKEYKCKVSNKGLPSSIEKTISKAKGQPREPQVCTLPPSQEEMTKNQVSLSCAVKGFYPSDIAVEWESNGQPENNYKTTPPVLDSDGSFFLVSRLTVDKSRWQEGNVFSCSVMHEALHNRFTQKSLSLSL",3.1 pM
3,"CEA-4N1+4O1-TA1 (bispecific antibody, human IgG4 S228P, F234A L235A) chain 1: EVQLVESGGGFVQAGESLTLSCTSSTLTFTPYRMAWYRQAPGKQRDLVADISSGDGRTTNYADFAKGRFTISRDNIKNTVFLRMTNLKPEDTAVYYCNTFVSFVGIARSWGQGTQVTVSSESKYGPPCPPCPAPEAAGGPSVFLFPPKPKDTLMISRTPEVTCVVVDVSQEDPEVQFNWYVDGVEVHNAKTKPREEQFNSTYRVVSVLTVLHQDWLNGKEYKCKVSNKGLPSSIEKTISKAKGQPREPQVYTLPPCQEEMTKNQVSLWCLVKGFYPSDIAVEWESNGQPENNYKTTPPVLDSDGSFFLYSRLTVDKSRWQEGNVFSCSVMHEALHNHYTQKSLSLSL chain 2: ESKYGPPCPPCPAPEAAGGPSVFLFPPKPKDTLMISRTPEVTCVVVDVSQEDPEVQFNWYVDGVEVHNAKTKPREEQFNSTYRVVSVLTVLHQDWLNGKEYKCKVSNKGLPSSIEKTISKAKGQPREPQVCTLPPSQEEMTKNQVSLSCAVKGFYPSDIAVEWESNGQPENNYKTTPPVLDSDGSFFLVSRLTVDKSRWQEGNVFSCSVMHEALHNRFTQKSLSLSLGGGGSGGGGSEVKLLESGGGLVQPKGSLKLSCAASGFTFNTYAMNWVRQAPGKGLEWVARIRSKYNNYATYYADSVKDRFTISRDDSQSILYLQMNNLKTEDTAMYYCVRHGNFGNSYVSWFAYWGQGTLVTVSSGGGGSGGGGSGGGGSQAVVTQESALTTSPGETVTLTCRSSTGAVTTSNYANWVQEKPDHLFTGLIGGTNKRAPGVPARFSGSLIGDKAALTITGAQTEDEAIYFCALWYSNLWVFGGGTKVEIKRT",9 pM
4,"CEA-4N1+TA1-4O1 (bispecific antibody, human IgG4 S228P, F234A L235A) chain 1: EVQLVESGGGFVQAGESLTLSCTSSTLTFTPYRMAWYRQAPGKQRDLVADISSGDGRTTNYADFAKGRFTISRDNIKNTVFLRMTNLKPEDTAVYYCNTFVSFVGIARSWGQGTQVTVSSESKYGPPCPPCPAPEAAGGPSVFLFPPKPKDTLMISRTPEVTCVVVDVSQEDPEVQFNWYVDGVEVHNAKTKPREEQFNSTYRVVSVLTVLHQDWLNGKEYKCKVSNKGLPSSIEKTISKAKGQPREPQVYTLPPCQEEMTKNQVSLWCLVKGFYPSDIAVEWESNGQPENNYKTTPPVLDSDGSFFLYSRLTVDKSRWQEGNVFSCSVMHEALHNHYTQKSLSLSL chain 2: EVKLLESGGGLVQPKGSLKLSCAASGFTFNTYAMNWVRQAPGKGLEWVARIRSKYNNYATYYADSVKDRFTISRDDSQSILYLQMNNLKTEDTAMYYCVRHGNFGNSYVSWFAYWGQGTLVTVSSGGGGSGGGGSGGGGSQAVVTQESALTTSPGETVTLTCRSSTGAVTTSNYANWVQEKPDHLFTGLIGGTNKRAPGVPARFSGSLIGDKAALTITGAQTEDEAIYFCALWYSNLWVFGGGTKVEIKRTESKYGPPCPPCPAPEAAGGPSVFLFPPKPKDTLMISRTPEVTCVVVDVSQEDPEVQFNWYVDGVEVHNAKTKPREEQFNSTYRVVSVLTVLHQDWLNGKEYKCKVSNKGLPSSIEKTISKAKGQPREPQVCTLPPSQEEMTKNQVSLSCAVKGFYPSDIAVEWESNGQPENNYKTTPPVLDSDGSFFLVSRLTVDKSRWQEGNVFSCSVMHEALHNRFTQKSLSLSL",0.005 pM
5,"4N1-TA1+CEA-4O1 (bispecific antibody, human IgG4 S228P, F234A L235A) chain 1: ESKYGPPCPPCPAPEAAGGPSVFLFPPKPKDTLMISRTPEVTCVVVDVSQEDPEVQFNWYVDGVEVHNAKTKPREEQFNSTYRVVSVLTVLHQDWLNGKEYKCKVSNKGLPSSIEKTISKAKGQPREPQVYTLPPCQEEMTKNQVSLWCLVKGFYPSDIAVEWESNGQPENNYKTTPPVLDSDGSFFLYSRLTVDKSRWQEGNVFSCSVMHEALHNHYTQKSLSLSLGGGGSGGGGSEVKLLESGGGLVQPKGSLKLSCAASGFTFNTYAMNWVRQAPGKGLEWVARIRSKYNNYATYYADSVKDRFTISRDDSQSILYLQMNNLKTEDTAMYYCVRHGNFGNSYVSWFAYWGQGTLVTVSSGGGGSGGGGSGGGGSQAVVTQESALTTSPGETVTLTCRSSTGAVTTSNYANWVQEKPDHLFTGLIGGTNKRAPGVPARFSGSLIGDKAALTITGAQTEDEAIYFCALWYSNLWVFGGGTKVEIKRT chain 2: EVQLVESGGGFVQAGESLTLSCTSSTLTFTPYRMAWYRQAPGKQRDLVADISSGDGRTTNYADFAKGRFTISRDNIKNTVFLRMTNLKPEDTAVYYCNTFVSFVGIARSWGQGTQVTVSSESKYGPPCPPCPAPEAAGGPSVFLFPPKPKDTLMISRTPEVTCVVVDVSQEDPEVQFNWYVDGVEVHNAKTKPREEQFNSTYRVVSVLTVLHQDWLNGKEYKCKVSNKGLPSSIEKTISKAKGQPREPQVCTLPPSQEEMTKNQVSLSCAVKGFYPSDIAVEWESNGQPENNYKTTPPVLDSDGSFFLVSRLTVDKSRWQEGNVFSCSVMHEALHNRFTQKSLSLSL",6 pM
6,"4N1-TA1+4O1-CEA (bispecific antibody, human IgG4 S228P, F234A L235A) chain 1: ESKYGPPCPPCPAPEAAGGPSVFLFPPKPKDTLMISRTPEVTCVVVDVSQEDPEVQFNWYVDGVEVHNAKTKPREEQFNSTYRVVSVLTVLHQDWLNGKEYKCKVSNKGLPSSIEKTISKAKGQPREPQVYTLPPCQEEMTKNQVSLWCLVKGFYPSDIAVEWESNGQPENNYKTTPPVLDSDGSFFLYSRLTVDKSRWQEGNVFSCSVMHEALHNHYTQKSLSLSLGGGGSGGGGSEVKLLESGGGLVQPKGSLKLSCAASGFTFNTYAMNWVRQAPGKGLEWVARIRSKYNNYATYYADSVKDRFTISRDDSQSILYLQMNNLKTEDTAMYYCVRHGNFGNSYVSWFAYWGQGTLVTVSSGGGGSGGGGSGGGGSQAVVTQESALTTSPGETVTLTCRSSTGAVTTSNYANWVQEKPDHLFTGLIGGTNKRAPGVPARFSGSLIGDKAALTITGAQTEDEAIYFCALWYSNLWVFGGGTKVEIKRT chain 2: ESKYGPPCPPCPAPEAAGGPSVFLFPPKPKDTLMISRTPEVTCVVVDVSQEDPEVQFNWYVDGVEVHNAKTKPREEQFNSTYRVVSVLTVLHQDWLNGKEYKCKVSNKGLPSSIEKTISKAKGQPREPQVCTLPPSQEEMTKNQVSLSCAVKGFYPSDIAVEWESNGQPENNYKTTPPVLDSDGSFFLVSRLTVDKSRWQEGNVFSCSVMHEALHNRFTQKSLSLSLGGGGSGGGGSEVQLVESGGGFVQAGESLTLSCTSSTLTFTPYRMAWYRQAPGKQRDLVADISSGDGRTTNYADFAKGRFTISRDNIKNTVFLRMTNLKPEDTAVYYCNTFVSFVGIARSWGQGTQVTVSS",6.7 pM
